Laboratory results reported in paper PMC5119889.

Experiments:
[1] = molecular target: polymerized microtubules from Cos7 lysate; assay: tubulin cosedimentation assay, band densitometry of immunoblots; settings: pre-cleared lysates of Cos7 cells expressing FLAG tagged GIV-WT or SD mutant; n = 3; parent: est. 0.90; read off a plot
[2] = molecular target: α1A-tubulin (α-Tubulin-CT) 399-451 (UniProt Q71U36); assay: GST pull-down, anti-His blot; settings: sites S245

Q: With “GIV-FLAG WT, full length human GIV (from UniProt Q3V6T2) S245D” as the substance, how does the other: Ratio of GIV (Pellet:Supernatant) [1] read?
A: 2

Q: “GIV (Girdin) 1-440 (from UniProt Q3V6T2) S245A, AMPK-treated” was tested. Which “binding against the reference” value ([2]; reference: wild type, AMPK-treated) did it give?
A: lost

Q: For “GIV (Girdin) 1-440 (from UniProt Q3V6T2) His-GIV-NT WT phosphorylated by AMPK”, which “binding against the reference” value ([2]; reference: His-GIV-NT WT, not phosphorylated) is on record?
A: gained
